Reference: article PMC5171940

Target: biotinylated Aβ immobilised for the SPR of CreneFab alanine mutants
Assay: SPR; BIAcore T200, single-cycle kinetics; biotinylated Aβ (11–28 or oligomeric 1–42) captured on streptavidin-coupled CM5 chip (100–200 RU); antibody as analyte 0.8–500 nM in HBS-P pH 7.4, 0.15 M NaCl; one-to-one Langmuir model

B1: CreneFab Ser52a alanine mutant (Fab, V domains shown)
VH: EVQLVESGGGLVQPGGSLRLSCAASGFTFSSYGMSWVRQAPGKGLELVASINANGGSTYYPDSVKGRFTISRDNAKNSLYLQMNSLRAEDTAVYYCASGDYWGQGTLVTVSS
VL: DIVMTQSPLSLPVTPGEPASISCRSSQSLVYSNGDTYLHWYLQKPGQSPQLLIYKVSNRFSGVPDRFSGSGSGTDFTLKISRVEAEDVGVYYCSQSTHVPWTFGQGTKVEIK
- fold reduction of affinity against wild-type CreneFab: 1.8 fold

B2: CreneFab with deletion of Glu1^HC and Val2^HC (Fab, V domains shown)
VH: QLVESGGGLVQPGGSLRLSCAASGFTFSSYGMSWVRQAPGKGLELVASINSNGGSTYYPDSVKGRFTISRDNAKNSLYLQMNSLRAEDTAVYYCASGDYWGQGTLVTVSS
VL: B1 VL
- fold reduction of affinity against wild-type CreneFab: 2.6 fold
